In paper PMC8594541:

B1: 1-deoxy-D-xylulose 5-phosphate reductoisomerase (AbIspC) (Acinetobacter baumannii AB307-0294) (protein)
chain: MTQSVCILGVTGSIGRSTLKILGQHPDKYSVFAVSAHSRISELVEICKQFRPKVVVVPEQKIAELKTLFAQQNISDIDVLAGQEGLVDIASHTDVDIVMAAIVGAAGLLPTLAAVKAGKRVLLANKEALVMSGEIMMQAARDHQALLLPVDSEHNAIFQSLPHNYLQADRTGQPQLGVSKILLTASGGPFLNHSLEQLVHVTPQQACKHPNWSMGQKISVDSATLMNKGLELIEACHLFSISEHFVTVVVHPQSIIHSMVQYVDGSTLAQMGNPDMCTPIAHALAWPERLQTNVPALDLFEYSQLNFQAPDTQKFPALNLARQAMRAGGLAPTILNAANEIAVEAFLMERIGFTSIPQVVEHTLEKLENAAAESIECILDKDKVARSVAQQYISSIGG
B2: 1-deoxy-D-xylulose 5-phosphate reductoisomerase (KpIspC) (Klebsiella pneumoniae subsp. pneumoniae MGH 78578) (protein)
chain: MKQLTVLGSTGSIGCSTLDVVRHNPGRFSVAALVAGKNVDRMVEQCLEFTPRYAVMDDAQSAERLRTRLHEHGSRTEVLSGQQAAAEVAALDEVDQVMAAIVGAAGLVPTLAAIRAGKTVLLANKESLVTCGRLFMEAVQQSGARLLPVDSEHNAIFQSMPETIQQHLGYADLAQNGVSSILLTGSGGPFRETAVAELAAMTPDQACRHPNWSMGRKISVDSATMMNKGLEYIEARWLFNASAQQMEVLIHPQSVIHSMVRYQDGSVLAQLGEPDMRTPIAHTMGWPQRLNSGVKPLDFCQLSNLSFSAPDYTRYPCLKLAMDAFDVGQAATTTLNAANEESVAAFLHGDIRFTDIAAVNLAVLDKMDLQEPQSIDDVLVIDAEARAIAHQQLQRLVAQA

Assays:
purified protein [1] = substrate: CC(=O)[C@@H](O)[C@H](O)COP(=O)(O)O; test: purified protein; assay type: biochemical, Acinetobacter baumannii; conditions: NADPH, Mg2+
purified protein [2] = substrate: CC(=O)[C@@H](O)[C@H](O)COP(=O)(O)O; test: purified protein; assay type: biochemical, Klebsiella pneumoniae; conditions: NADPH, Mg2+

Protein	Km (purified protein [1]) [µM]	kcat (purified protein [1]) [s⁻¹]	Km (purified protein [2]) [µM]	kcat (purified protein [2]) [s⁻¹]
B1	127.6	1.92 ± 0.03	–	–
B2	–	–	155.5	2.21 ± 0.06
